The target in data set [1] is His6-BldC (Streptomyces coelicolor) (UniProt A0A0M7QSG5). Briefly: fluorescence polarization. The settings on record: FP: 25 mM Tris pH 7.5, 150 mM NaCl, 1 nM F-DNA, 25 C, footprinting: 10 mM Tris HCl pH 7.8, 150 mM NaCl, 2 mM DTT, 1 ug poly(dI-dC), 10% glycerol (none for …). On the technique in general: Fluorescence polarisation rises when a labelled molecule tumbles more slowly, as on binding a larger partner.

The subject of data set [2] is T1, His6-BldC (Streptomyces coelicolor), ORF:188ed25c.
T1 sequence: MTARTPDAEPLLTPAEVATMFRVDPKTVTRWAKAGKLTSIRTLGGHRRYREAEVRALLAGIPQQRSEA
Briefly: DNase I footprinting. To be noted: FP: 25 mM Tris pH 7.5, 150 mM NaCl, 1 nM F-DNA, 25 C; footprinting: 10 mM Tris HCl pH 7.8, 150 mM NaCl, 2 mM DTT, 1 ug poly(dI-dC), 10% glycerol (none for …).

For data set [3] the test system is unchanged. Briefly: hydroxyl radical footprinting. To be noted: FP: 25 mM Tris pH 7.5, 150 mM NaCl, 1 nM F-DNA, 25 C; footprinting: 10 mM Tris HCl pH 7.8, 150 mM NaCl, 2 mM DTT, 1 ug poly(dI-dC), 10% glycerol (none for …).
Data set [4] has the same test system. Briefly: EMSA. To be noted: FP: 25 mM Tris pH 7.5, 150 mM NaCl, 1 nM F-DNA, 25 C; footprinting: 10 mM Tris HCl pH 7.8, 150 mM NaCl, 2 mM DTT, 1 ug poly(dI-dC), 10% glycerol (none for …).
In data set [5] the target is His6-SeMet BldC(L43M-L58M) (Streptomyces coelicolor) (UniProt A0A0M7QSG5). Briefly: fluorescence polarization. To be noted: FP: 25 mM Tris pH 7.5, 150 mM NaCl, 1 nM F-DNA, 25 C; footprinting: 10 mM Tris HCl pH 7.8, 150 mM NaCl, 2 mM DTT, 1 ug poly(dI-dC), 10% glycerol (none for …).
Data set [6] has as its target His6-BldC(E16R) (Streptomyces coelicolor) (UniProt A0A0M7QSG5). Briefly: fluorescence polarization. The settings on record: FP: 25 mM Tris pH 7.5, 150 mM NaCl, 1 nM F-DNA, 25 C; footprinting: 10 mM Tris HCl pH 7.8, 150 mM NaCl, 2 mM DTT, 1 ug poly(dI-dC), 10% glycerol (none for …).
For data set [7], the target named is Tag-free BldC (Streptomyces coelicolor) (UniProt A0A0M7QSG5). Briefly: fluorescence polarization. To be noted: FP: 25 mM Tris pH 7.5, 150 mM NaCl, 1 nM F-DNA, 25 C; footprinting: 10 mM Tris HCl pH 7.8, 150 mM NaCl, 2 mM DTT, 1 ug poly(dI-dC), 10% glycerol (none for …).
The mark [8] stands for this setting: stoichiometry 4:1, WT BldC, tag status not stated.

For orientation: Kd means the constant that tells how readily two partners part at equilibrium. Low values mean higher affinity, high ones lower affinity. In turn, “ATTCGGACAATTCGGACAATTCGGACAATTCGGACA (double strand) [36mer opt]” yielded an equilibrium dissociation constant (Kd) in data set [1] (setting [8]) of 20 nM. On to “CGAGAGGATCATGTGAGTTCTCCTGGTTCACGGGGACAGTCACCATGAGTACTTCCAGGCTCACAGCATGTATCCATACGATAAAAGGTGCAAATGGGGGAAATTCGACCGAATTACCTCAGGTGGCGGAGCGCTCCTTGGGCCGCTCGGGTGTGCCGCGAGCCAGTACCCTGGCGGTTCAC (double strand) [smeA-sffA promoter PCR probe]”, for which the binding entry in data set [2], in data set [3] and in data set [4] was “binds” in each case. Turning to “GAGAACGGACACCAGGCCTCCTGGGGTGCGGGGACGGGGCCGGCTCATGGGGTTTAAGCCGGGACGAACCGTGCTTTCAAGGTCACAGTCGTCTTCGGCACCGAACGCGTCCGCCTTTAGAGAATGATCACGATCTGGTGAGTAACAATCCGAGCAATTCGGACACACTGTCGATCATTCGAAGATCGAACGGTTCCGCACTTTGTCGATACGAGGCCGAAAGTGGCCGTGTCGACAAAGTGACGGAACCTCCTCCGGACGTGCGGACCCCCTGCCCGGAACGATGAACGACGGCTGG (double strand) [whiI promoter PCR probe]”, the binding entry in data set [2] is on record as “binds”. On to “TAATTCGGTCGAATTTCCCCCATTTGCACCTTTTATCGTA (double strand) [smeA-ssfA site]”, for which, in data set [1] (setting [8]), the equilibrium dissociation constant (Kd) turned out to be 60 nM. The sequence “TTCAATTCGCACAATTCGCACA / AATGTGCGAATTGTGCGAATTG [whiI opt bp 8 and 17 to C]” had an equilibrium dissociation constant (Kd) in data set [1] of 115 nM. On to “TTCAATTCGGACAATTCGGACA / AATGTCCGAATTGTCCGAATTG [whiI opt 22mer (FP)]”, for which the Kd amounted to 19.6 nM in data set [5]; 140 nM in data set [6]; 18.2 nM in data set [1]; 20 nM in data set [1] (stoichiometry 2:1 (Fig. 5a)); 16.5 nM in data set [7]. On to “TTCAATTCGTACAATTCGTACA / AATGTACGAATTGTACGAATTG [whiI opt bp 8 and 17 to T]”, for which the equilibrium dissociation constant (Kd) in data set [1] was 50 nM.

The record behind these values is publication PMC5859096.
